Experimental data: US20250295803A1, “5T4 ANTIBODY-DRUG CONJUGATES AND USES THEREOF” (EXELIXIS, INC., priority 2022, published 2025)

How the values were obtained:
[1] = target: T1, HEK293 and CHO cells transfected to express cyno 5T4 (Macaca fascicularis, UniProt Q4R8Y9); experiment: Cell binding to transfected HEK293 and CHO cells, cyno 5T4; assay type: cell-based
T1 construct: expressed in transfected cells; host or cells: HEK293 and CHO
T1 sequence (Q4R8Y9 35-420): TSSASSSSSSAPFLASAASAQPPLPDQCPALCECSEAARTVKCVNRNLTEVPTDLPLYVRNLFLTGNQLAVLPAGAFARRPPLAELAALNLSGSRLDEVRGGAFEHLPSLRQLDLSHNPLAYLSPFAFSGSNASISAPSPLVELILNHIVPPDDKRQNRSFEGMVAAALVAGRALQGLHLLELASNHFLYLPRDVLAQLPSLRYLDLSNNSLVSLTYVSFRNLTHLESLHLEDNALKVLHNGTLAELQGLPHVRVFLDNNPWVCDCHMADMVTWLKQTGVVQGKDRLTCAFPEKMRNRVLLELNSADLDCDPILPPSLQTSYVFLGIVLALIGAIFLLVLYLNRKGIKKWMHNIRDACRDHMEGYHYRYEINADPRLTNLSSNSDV
Experimental: (§1) Unconjugated antibodies were tested for their ability to bind to HEK293 and CHO cells transfected to express human, cyno, rat, or mouse 5T4.

[2] = target: T2, HEK293 and CHO cells transfected to express human 5T4 (Homo sapiens, UniProt Q13641); experiment: Cell binding to transfected HEK293 and CHO cells, human 5T4; assay type: cell-based
T2 construct: expressed in transfected cells; host or cells: HEK293 and CHO
T2 sequence (Q13641 32-420): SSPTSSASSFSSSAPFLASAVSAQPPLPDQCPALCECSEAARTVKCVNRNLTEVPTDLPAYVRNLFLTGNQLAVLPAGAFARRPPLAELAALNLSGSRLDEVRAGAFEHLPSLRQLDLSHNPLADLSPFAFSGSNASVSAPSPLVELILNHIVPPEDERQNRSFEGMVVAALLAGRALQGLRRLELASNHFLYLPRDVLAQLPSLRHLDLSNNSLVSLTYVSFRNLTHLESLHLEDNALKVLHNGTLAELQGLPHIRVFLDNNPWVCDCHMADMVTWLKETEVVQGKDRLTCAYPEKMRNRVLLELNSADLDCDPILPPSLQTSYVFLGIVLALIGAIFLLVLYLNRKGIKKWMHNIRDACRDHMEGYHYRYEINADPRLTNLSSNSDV
Experimental: as §1

[3] = Hydrophobic interaction chromatography (HIC) developability; assay type: physicochemical; conditions: 1 mg/mL in Dulbecco's PBS pH 7.4
Experimental: Antibodies that were selected for binding to 5T4, such as those described in Examples 2 and 3, were tested by various methods to assess developability. For example, various chromatographic methods, including size exclusion chromatography (SEC), hydrophobic interaction chromatography (HIC), and standup monolayer adsorption chromatography (SMAC) were employed to assess factors, such as monomer percentage, solubility, and antibody aggregation or precipitation.
Hydrophobic interaction chromatography (HIC) analysis was performed using a 4.6 mm ID×3.5 cm TSKgel Butyl-NPR column (Tosoh Bioscience LLC, PN 14947) on an Agilent 1100 HPLC. Antibodies were normalized to 1 mg/mL concentration in Dulbecco's PBS (pH 7.4, without Ca^2+/Mg^2+). The column was equilibrated with 100% mobile phase Buffer A (2 M ammonium sulfate/20 mM sodium phosphate, pH 7.0) at a flow rate of 1 mL/minute at ambient temperature. For each sample, 10 μL was loaded and eluted using a gradient from 100% mobile phase buffer A to 100% mobile phase buffer B (20 mM sodium phosphate, pH 7.0) at 1.0 mL/minute over 15 minutes, held at 100% B for 3 minutes to wash the column, and returned 100% A for 2 minutes for equilibration. Absorbance was monitored at 280 nm. Sample retention time was calculated and compared to a set of standard controls to identify antibodies with increased retention time (increased hydrophobicity) and the presence of multiple species. Data analysis was performed using Agilent ChemStation B.04.03 SP1

[4] = target: T3, unconjugated human TPBG/5T4 protein with a c-terminal polyhistidine and Avi tag (AcroBiosystems Cat. No. … (human, UniProt Q13641 32-355)); experiment: ELISA on coated human 5T4 His-Avi (Acro TPG-H52E5); antibody condition: PBS + H2O2 time 48 hr.
T3 construct: Bought protein; also called Acro TPGH52E5; Acro Catalog No. TPGH52E; not shown: C-terminal polyhistidine and Avi tag
T3 sequence: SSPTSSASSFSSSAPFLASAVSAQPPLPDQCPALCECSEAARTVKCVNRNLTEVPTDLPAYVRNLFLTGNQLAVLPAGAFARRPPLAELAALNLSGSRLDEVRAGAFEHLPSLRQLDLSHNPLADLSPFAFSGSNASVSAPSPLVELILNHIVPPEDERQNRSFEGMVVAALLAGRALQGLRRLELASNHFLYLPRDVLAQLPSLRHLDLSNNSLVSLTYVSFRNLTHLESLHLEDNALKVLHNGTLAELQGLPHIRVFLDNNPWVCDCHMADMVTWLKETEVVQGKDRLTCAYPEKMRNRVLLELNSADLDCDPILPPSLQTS
Experimental: (§2) A. Normal Binding Unconjugated antibodies were tested for their ability to bind to human 5T4 (hu5T4) using ELISA. On Day 1, unconjugated human TPBG/5T4 protein with a c-terminal polyhistidine and Avi (AVITAG™) tag (AcroBiosystems (Newark, DE, USA), Cat. No. TPG-H52E5) was diluted 2 μg/mL in PBS, mixed thoroughly, plated 100 μL per well in a 96-well plate (Nunc MAXISORP®) and incubated overnight at 4° C.
3. Oxidative Stress. Several unconjugated antibodies were tested for their ability to bind to 5T4 using ELISA in an oxidative environment. […]

[5] = target: T3, unconjugated human TPBG/5T4 protein …; experiment: ELISA on coated human 5T4 His-Avi (Acro TPG-H52E5); antibody condition: pH 8.5 Day 14
Experimental: as §2

[6] = target: T3, unconjugated human TPBG/5T4 protein …; experiment: ELISA on coated human 5T4 His-Avi (Acro TPG-H52E5); antibody condition: pH 8.5 Day 7
Experimental: as §2

[7] = target: T3, unconjugated human TPBG/5T4 protein …; experiment: ELISA on coated human 5T4 His-Avi (Acro TPG-H52E5); antibody condition: PBS + H2O2 time 0
Experimental: as §2
3. Oxidative Stress. Several unconjugated antibodies were tested for their ability to bind to 5T4 using ELISA in an oxidative environment. Solutions of 1 mg/mL to 10 mg/mL of antibody in 20 mM citrate/50 mM NaCl at a pH of 5.5 were prepared and stored at 37° C. for 1 to 2 weeks.

B1: mAbA4: 5T4 antibody comprising VH of SEQ ID NO:25 and VL of SEQ ID NO:26 (antibody, V domains shown)
VH: EVQLVESGGGLVQPGGSLRLSCAASGFTFSRYYIHWVRQAPGKGLEWVAFISPGGSYTYYADSVKGRFTISADTSKNTAYLQMNSLRAEDTAVYYCAREYYSMGVLDYWGQGTLVTVSS
VL: DIQMTQSPSSLSASVGDRVTITCRASQSVSSAVAWYQQKPGKAPKLLIYSASSLYSGVPSRFSGSRSGTDFTLTISSLQPEDFATYYCQQAYESPYTFGQGTKVEIK
modifications: Antibody mAbA4 VH Sequence; Antibody mAbA4 VL Sequence
[1]
  reactivity to cells transfected to express cyno 5T4: reactive
[2]
  reactivity to cells transfected to express human 5T4: reactive
[3]
  developability based on HIC analysis: strong developability

B2: mAbA15: 5T4 antibody comprising VH of SEQ ID NO:44 and VL of SEQ ID NO:45 (antibody, V domains shown)
VH: EVQLVESGGGLVQPGGSLRLSCAASGFTFSSYYIHWVRQAPGKGLEWVAYITSTGSYTEYADSVKGRFTISADTSKNTAYLQMNSLRAEDTAVYYCARYDRSTRYSGLDYWGQGTLVTVSS
VL: DIQMTQSPSSLSASVGDRVTITCRASQSVSSAVAWYQQKPGKAPKLLIYSASSLYSGVPSRFSGSRSGTDFTLTISSLQPEDFATYYCQQAYATPVTFGQGTKVEIK
modifications: Antibody mAbA15 VH Sequence; Antibody mAbA15 VL Sequence
[1]
  reactivity to cells transfected to express cyno 5T4: reactive
[2]
  reactivity to cells transfected to express human 5T4: reactive
[3]
  developability based on HIC analysis: strong developability

B3: mAbA17 (antibody, V domains shown)
VH: EVQLVESGGGLVQPGGSLRLSCAASGFTFSRYWIHWVRQAPGKGLEWVAAIFPYSGSTLYADSVKGRFTISADTSKNTAYLQMNSLRAEDTAVYYCARSPSRSILPSGLDYWGQGTLVTVSS
VL: DIQMTQSPSSLSASVGDRVTITCRASQSVSSAVAWYQQKPGKAPKLLIYSASSLYSGVPSRFSGSRSGTDFTLTISSLQPEDFATYYCQQGDGSPYTFGQGTKVEIKR
notes: also called Antibody mAbA17
[4]
  EC50: 0.207 nM
[5]
  EC50: 0.167 nM
[6]
  EC50: 0.158 nM
[7]
  EC50: 0.188 nM

B4: mAbA17: 5T4 antibody comprising VH of SEQ ID NO:62 and VL of SEQ ID NO:63 (antibody, V domains shown)
VH: EVQLVESGGGLVQPGGSLRLSCAASGFTFSRYWIHWVRQAPGKGLEWVAAIFPYSGSTLYADSVKGRFTISADTSKNTAYLQMNSLRAEDTAVYYCARSPSRSILPSGLDYWGQGTLVTVSS
VL: DIQMTQSPSSLSASVGDRVTITCRASQSVSSAVAWYQQKPGKAPKLLIYSASSLYSGVPSRFSGSRSGTDFTLTISSLQPEDFATYYCQQGDGSPYTFGQGTKVEIK
modifications: Antibody mAbA17 VH Sequence; Antibody mAbA17 VL Sequence
[1]
  reactivity to cells transfected to express cyno 5T4: reactive
[2]
  reactivity to cells transfected to express human 5T4: reactive
[3]
  developability based on HIC analysis: strong developability

B5: mAbA4 (antibody, V domains shown)
VH: EVQLVESGGGLVQPGGSLRLSCAASGFTFSRYYIHWVRQAPGKGLEWVAFISPGGSYTYYADSVKGRFTISADTSKNTAYLQMNSLRAEDTAVYYCAREYYSMGVLDYWGQGTLVTVSS
VL: DIQMTQSPSSLSASVGDRVTITCRASQSVSSAVAWYQQKPGKAPKLLIYSASSLYSGVPSRFSGSRSGTDFTLTISSLQPEDFATYYCQQAYESPYTFGQGTKVEIKR
notes: also called Antibody mAbA4
[4]
  EC50: 0.386 nM
[5]
  EC50: 0.136 nM
[6]
  EC50: 0.128 nM
[7]
  EC50: 0.225 nM

B6: mAbA15 (antibody, V domains shown)
VH: EVQLVESGGGLVQPGGSLRLSCAASGFTFSSYYIHWVRQAPGKGLEWVAYITSTGSYTEYADSVKGRFTISADTSKNTAYLQMNSLRAEDTAVYYCARYDRSTRYSGLDYWGQGTLVTVSS
VL: DIQMTQSPSSLSASVGDRVTITCRASQSVSSAVAWYQQKPGKAPKLLIYSASSLYSGVPSRFSGSRSGTDFTLTISSLQPEDFATYYCQQAYATPVTFGQGTKVEIKR
notes: also called Antibody mAbA15
[4]
  EC50: 0.189 nM
[5]
  EC50: 0.131 nM
[6]
  EC50: 0.143 nM
[7]
  EC50: 0.191 nM
